Measurements taken from PMC4913355 (Methods in enzymology, 2015).

B1: Skp (natural protein, E. coli, UniProt P0AEU7 21-161, looked up)
chain: ADKIAIVNMGSLFQQVAQKTGVSNTLENEFKGRASELQRMETDLQAKMKKLQSMKAGSDRTKLEKDVMAQRQTFAQKAQAFEQDRARRSNEERGKLVTRIQTAVKSVANSQDIDLVVDANAVAYNSSDVKDITADVLKQVK

Columns and labels:
Skp = target: B1; assay: contrast variation small-angle neutron scattering
[1] = target: the molecule itself; assay: small-angle neutron scattering

| Binder | stoichiometry N (Skp) [Skp monomers per uOMP] | stoichiometry N [1] |
| --- | --- | --- |
| unfolded OmpW, deuterated (natural protein, UniProt P0A915 22-212, looked up, partially deuterated (estimated 50 % ± 5 %)) HEAGEFFMRAGSATVRPTEGAGGTLGSLGGFSVTNNTQLGLTFTYMATDNIGVELLAATPFRHKIGTRATGDIATVHHLPPTLMAQWYFGDASSKFRPYVGAGINYTTFFDNGFNDHGKEAGLSDLSLKDSWGAAGQVGVDYLINRDWLVNMSVWYMDIDTTANYKLGGAQQHDSVRLDPWVFMFSAGYRF | 3 |  |
| B1 |  | 3 |
| unfolded OmpA, deuterated (natural protein, E. coli, UniProt P0A910 22-346, looked up, partially deuterated (estimated 50 % ± 5 %)) APKDNTWYTGAKLGWSQYHDTGFINNNGPTHENQLGAGAFGGYQVNPYVGFEMGYDWLGRMPYKGSVENGAYKAQGVQLTAKLGYPITDDLDIYTRLGGMVWRADTKSNVYGKNHDTGVSPVFAGGVEYAITPEIATRLEYQWTNNIGDAHTIGTRPDNGMLSLGVSYRFGQGEAAPVVAPAPAPAPEVQTKHFTLKSDVLFNFNKATLKPEGQAALDQLYSQLSNLDPKDGSVVVLGYTDRIGSDAYNQGLSERRAQSVVDYLISKGIPADKISARGMGESNPVTGNTCDNVKQRAALIDCLAPDRRVEIEVKGIKDVVTQPQA | 3 |  |
